According to patent publication EP4803150A2 (Lyvgen Biopharma Holdings Limited, dated 2026):

B1: Ly2936 (multi-specific antibody)
chain 1: QVQLVQSGAEVKKPGASVKVSCKASGYTFTSYVMHWVRQKPGQGLEWIGYINPYNEGTESTDKFKGRATMTSDKSTSTVYMELSSLRSEDTAVYYCASIYYGYEGTYFGVWGQGTLVTVSSASTKGPSVFPLAPSSKSTSGGTAALGCLVKDYFPEPVTVSWNSGALTSGVHTFPAVLQSSGLYSLSSVVTVPSSSLGTQTYICNVNHKPSNTKVDKKVEPKSCGGGGSGGGGSGGGGSGGGGSEVQLVESGGGLVQPGGSLRLSCAASGFTFSTYAMNWVRQAPGKGLEWVGRIRSKYNNYATYYADSVKGRFTISRDDSKNSLYLQMNSLKTEDTAVYYCVRHGNFGNSYVSWFAYWGQGTLVTVSSGGGGSDKTHTCPPCPAPELLGPSVFLFPPKPKDTLMISRTPEVTCVVVDVSHEDPEVKFNWYVDGVEVHNAKTKPREEQYNSTYRVVSVLTVLHQDWLNGKEYKCKVSNKALGAPIEKTISKAKGQPREPQVYTLPPSREEMTKNQVSLWCLVKGFYPSDIAVEWESNGQPENNYKTTPPVLDSDGSFFLYSKLTVDKSRWQQGNVFSCSVMHEALHNHYTQKSLSLSPGKGGGGSGGGGSGGGGSGGGGSQVQLVQSGAEVKKPGASVKVSCKASGYTFAGFEMHWVRQAPGQGLEWMGAIDPKTGGTDYNQKFKDRVTMTRDTSISTAYMELSRLRSDDTAVYYCARDLGYFDVWGQGTLVTVSS
chain 2: QVQLVQSGAEVKKPGASVKVSCKASGYTFTSYVMHWVRQKPGQGLEWIGYINPYNEGTESTDKFKGRATMTSDKSTSTVYMELSSLRSEDTAVYYCASIYYGYEGTYFGVWGQGTLVTVSSASTKGPSVFPLAPSSKSTSGGTAALGCLVKDYFPEPVTVSWNSGALTSGVHTFPAVLQSSGLYSLSSVVTVPSSSLGTQTYICNVNHKPSNTKVDKKVEPKSCGGGGSGGGGSGGGGSGGGGSQAVVTQEPSLTVSPGGTVTLTCRSSTGAVTTSNYANWVQQKPGQAPRGLIGGTNKRAPWTPARFSGSLLGGKAALTITGAQAEDEADYYCALWYSNLWVFGGGTKLTVLGGGGSDKTHTCPPCPAPELLGPSVFLFPPKPKDTLMISRTPEVTCVVVDVSHEDPEVKFNWYVDGVEVHNAKTKPREEQYNSTYRVVSVLTVLHQDWLNGKEYKCKVSNKALGAPIEKTISKAKGQPREPQVYTLPPSREEMTKNQVSLSCAVKGFYPSDIAVEWESNGQPENNYKTTPPVLDSDGSFFLVSKLTVDKSRWQQGNVFSCSVMHEALHNRFTQKSLSLSPGKGGGGSGGGGSGGGGSGGGGSDIQMTQSPSSLSASVGDRVTITCRASQDIRSNLNWYQQKPGGAVKLLIYYTSRLHSGVPSRFSGSGSGTDYTLTISSLQPEDFATYFCQQSEKLPRTFGGGTKVEIR
chain 3: EIVLTQSPATLSLSPGERATLSCRASSSVSYMHWYQQKPGQAPRPWIYATSNLASGIPARFSGSRSGTDYTLTISSLEPEDFAVYYCQQWSSNTLTFGGGTKVEIKRTVAAPSVFIFPPSDEQLKSGTASVVCLLNNFYPREAKVQWKVDNALQSGNSQESVTEQDSKDSTYSLSSTLTLSKADYEKHKVYACEVTHQGLSSPVTKSFNRGEC
notes: B7H3/CD3/CD137
B2: Ly2937 (multi-specific antibody)
chain 1: not shown
chain 2: QVQLVQSGAEVKKPGASVKVSCKASGYTFTSYVMHWVRQKPGQGLEWIGYINPYNEGTESTDKFKGRATMTSDKSTSTVYMELSSLRSEDTAVYYCASIYYGYEGTYFGVWGQGTLVTVSSASTKGPSVFPLAPSSKSTSGGTAALGCLVKDYFPEPVTVSWNSGALTSGVHTFPAVLQSSGLYSLSSVVTVPSSSLGTQTYICNVNHKPSNTKVDKKVEPKSCGGGGSGGGGSGGGGSGGGGSQIVLTQSPAIMSASPGEKVTMTCSASSSVSYMNWYQQKSGTSPKRWIYDTSKLASGVPAHFRGSGSGTSYSLTISGMEAEDAATYYCQQWSSNPFTFGSGTKLEINGGGGSDKTHTCPPCPAPELLGPSVFLFPPKPKDTLMISRTPEVTCVVVDVSHEDPEVKFNWYVDGVEVHNAKTKPREEQYNSTYRVVSVLTVLHQDWLNGKEYKCKVSNKALGAPIEKTISKAKGQPREPQVYTLPPSREEMTKNQVSLSCAVKGFYPSDIAVEWESNGQPENNYKTTPPVLDSDGSFFLVSKLTVDKSRWQQGNVFSCSVMHEALHNRFTQKSLSLSPGKGGGGSGGGGSGGGGSGGGGSDIQMTQSPSSLSASVGDRVTITCRASQDIRSNLNWYQQKPGGAVKLLIYYTSRLHSGVPSRFSGSGSGTDYTLTISSLQPEDFATYFCQQSEKLPRTFGGGTKVEIR
chain 3: B1 chain 3
notes: B7H3/CD3/CD137
B3: Ly2940 (bispecific antibody, human IgG1, kappa)
chain 1: QVQLVQSGAEVKKPGASVKVSCKASGYTFTSYVMHWVRQKPGQGLEWIGYINPYNEGTESTDKFKGRATMTSDKSTSTVYMELSSLRSEDTAVYYCASIYYGYEGTYFGVWGQGTLVTVSSASTKGPSVFPLAPSSKSTSGGTAALGCLVKDYFPEPVTVSWNSGALTSGVHTFPAVLQSSGLYSLSSVVTVPSSSLGTQTYICNVNHKPSNTKVDKKVEPKSCDKTHTCPPCPAPELLGPSVFLFPPKPKDTLMISRTPEVTCVVVDVSHEDPEVKFNWYVDGVEVHNAKTKPREEQYNSTYRVVSVLTVLHQDWLNGKEYKCKVSNKALGAPIEKTISKAKGQPREPQVYTLPPSREEMTKNQVSLWCLVKGFYPSDIAVEWESNGQPENNYKTTPPVLDSDGSFFLYSKLTVDKSRWQQGNVFSCSVMHEALHNHYTQKSLSLSPGKGGGGSGGGGSGGGGSGGGGSQVQLVQSGAEVKKPGASVKVSCKASGYTFAGFEMHWVRQAPGQGLEWMGAIDPKTGGTDYNQKFKDRVTMTRDTSISTAYMELSRLRSDDTAVYYCARDLGYFDVWGQGTLVTVSS
chain 2: QVQLVQSGAEVKKPGASVKVSCKASGYTFTSYVMHWVRQKPGQGLEWIGYINPYNEGTESTDKFKGRATMTSDKSTSTVYMELSSLRSEDTAVYYCASIYYGYEGTYFGVWGQGTLVTVSSASTKGPSVFPLAPSSKSTSGGTAALGCLVKDYFPEPVTVSWNSGALTSGVHTFPAVLQSSGLYSLSSVVTVPSSSLGTQTYICNVNHKPSNTKVDKKVEPKSCDKTHTCPPCPAPELLGPSVFLFPPKPKDTLMISRTPEVTCVVVDVSHEDPEVKFNWYVDGVEVHNAKTKPREEQYNSTYRVVSVLTVLHQDWLNGKEYKCKVSNKALGAPIEKTISKAKGQPREPQVYTLPPSREEMTKNQVSLSCAVKGFYPSDIAVEWESNGQPENNYKTTPPVLDSDGSFFLVSKLTVDKSRWQQGNVFSCSVMHEALHNRFTQKSLSLSPGKGGGGSGGGGSGGGGSGGGGSDIQMTQSPSSLSASVGDRVTITCRASQDIRSNLNWYQQKPGGAVKLLIYYTSRLHSGVPSRFSGSGSGTDYTLTISSLQPEDFATYFCQQSEKLPRTFGGGTKVEIR
chain 3: B1 chain 3
notes: B7H3/CD137; anti-CD137 Fv on C-terminal
B4: Ly2823 (multi-specific antibody)
chain 1: EVQLVESGGGLVKPGGSLKLSCEASRFTFSSYAMSWVRQTPEKRLEWVAAISGGGRYTYYPDSMKGRFTISRDNAKNFLYLQMSSLRSEDTAMYYCARHYDGYLDYWGQGTTLTVSSASTKGPSVFPLAPSSKSTSGGTAALGCLVKDYFPEPVTVSWNSGALTSGVHTFPAVLQSSGLYSLSSVVTVPSSSLGTQTYICNVNHKPSNTKVDKKVEPKSCGGGGSGGGGSGGGGSGGGGSEVQLVESGGGLVQPGGSLRLSCAASGFTFSTYAMNWVRQAPGKGLEWVGRIRSKYNNYATYYADSVKGRFTISRDDSKNSLYLQMNSLKTEDTAVYYCVRHGNFGNSYVSWFAYWGQGTLVTVSSGGGGSDKTHTCPPCPAPELLGPSVFLFPPKPKDTLMISRTPEVTCVVVDVSHEDPEVKFNWYVDGVEVHNAKTKPREEQYNSTYRVVSVLTVLHQDWLNGKEYKCKVSNKALGAPIEKTISKAKGQPREPQVYTLPPSREEMTKNQVSLWCLVKGFYPSDIAVEWESNGQPENNYKTTPPVLDSDGSFFLYSKLTVDKSRWQQGNVFSCSVMHEALHNHYTQKSLSLSPGKGGGGSGGGGSGGGGSGGGGSQVQLVQSGAEVKKPGASVKVSCKASGYTFAGFEMHWVRQAPGQGLEWMGAIDPKTGGTDYNQKFKDRVTMTRDTSISTAYMELSRLRSDDTAVYYCARDLGYFDVWGQGTLVTVSS
chain 2: EVQLVESGGGLVKPGGSLKLSCEASRFTFSSYAMSWVRQTPEKRLEWVAAISGGGRYTYYPDSMKGRFTISRDNAKNFLYLQMSSLRSEDTAMYYCARHYDGYLDYWGQGTTLTVSSASTKGPSVFPLAPSSKSTSGGTAALGCLVKDYFPEPVTVSWNSGALTSGVHTFPAVLQSSGLYSLSSVVTVPSSSLGTQTYICNVNHKPSNTKVDKKVEPKSCGGGGSGGGGSGGGGSGGGGSQAVVTQEPSLTVSPGGTVTLTCRSSTGAVTTSNYANWVQQKPGQAPRGLIGGTNKRAPWTPARFSGSLLGGKAALTITGAQAEDEADYYCALWYSNLWVFGGGTKLTVLGGGGSDKTHTCPPCPAPELLGPSVFLFPPKPKDTLMISRTPEVTCVVVDVSHEDPEVKFNWYVDGVEVHNAKTKPREEQYNSTYRVVSVLTVLHQDWLNGKEYKCKVSNKALGAPIEKTISKAKGQPREPQVYTLPPSREEMTKNQVSLSCAVKGFYPSDIAVEWESNGQPENNYKTTPPVLDSDGSFFLVSKLTVDKSRWQQGNVFSCSVMHEALHNHYTQKSLSLSPGKGGGGSGGGGSGGGGSGGGGSDIQMTQSPSSLSASVGDRVTITCRASQDIRSNLNWYQQKPGGAVKLLIYYTSRLHSGVPSRFSGSGSGTDYTLTISSLQPEDFATYFCQQSEKLPRTFGGGTKVEIR
chain 3: DIVMTQSHKFMSTSIGARVSITCKASQDVRTAVAWYQQKPGQSPKLLIYSASYRYTGVPDRFTGSGSGTDFTFTISSVQAEDLAVYYCQQHYGTPPWTFGGGTKLEIKRTVAAPSVFIFPPSDEQLKSGTASVVCLLNNFYPREAKVQWKVDNALQSGNSQESVTEQDSKDSTYSLSSTLTLSKADYEKHKVYACEVTHQGLSSPVTKSFNRGEC
notes: B7H3/CD3/CD137

Target: T1, CD137 (human, UniProt Q07011 24-186)
T1 construct: Whole on GS-H2-huCD137 reporter cells in the reporter assays; also called 4-1BB
Assay: FCM or ELISA, graded

Row | Binder | binding result
1 | B1 | binds
2 | B2 | binds
3 | B3 | binds
4 | B4 | binds
